Target: mutant membrane-bound TNFα on stably transfected CHO cells (B-220 cells) (UniProt P01375)
Assay: FACS, anti-CD19 beads with TNFα-transfected CHO cells

UniProt P01375, sequence (P01375 whole entry, change not shown): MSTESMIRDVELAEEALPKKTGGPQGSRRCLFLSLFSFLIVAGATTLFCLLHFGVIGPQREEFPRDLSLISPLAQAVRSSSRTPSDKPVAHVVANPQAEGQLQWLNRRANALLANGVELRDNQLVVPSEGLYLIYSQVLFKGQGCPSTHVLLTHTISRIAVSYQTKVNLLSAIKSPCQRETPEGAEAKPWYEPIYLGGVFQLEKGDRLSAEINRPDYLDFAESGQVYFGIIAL

#Events (CHO cells bound to anti-CD19 beads, gate P4): 6 events
#Events (unbound beads, gate P2): 558 events
% Parent (gate P4): 0.1%
% Total (gate P4): 0.1%
Substance: APC-labeled unrelated antibody (anti-CD19) coated on beads
